# Measured values published in patent publication US20250381289A1 (Genmab, published 2025).
# Positions count from the first letter of the chain named.
# B1: AZD9592 (bispecific antibody, human IgG1, kappa, lambda)
# anti EGFR heavy chain: QVQLVQSGAEVKKPGSSVKVSCKASGGTFSDNDFSWVRQAPGQGLEWMGAIVAVFRTETYAQKFQDRVKITADISTRTTYMELSSLRSEDTAVYYCARRLMSAISGPGAPLLMWGQGTLVTVSSASTKGPSVCPLAPSSKSTSGGTAALGCLVKDYFPEPVTVSWNSGALTSGVHTFPAVLQSSGLYSLSSVVTVPSSSLGTQTYICNVNHKPSNTKVDKRVEPKSVDKTHTCPPCPAPEFEGGPSVFLFPPKPKDTLMISRTPEVTCVVVDVSHEDPEVKFNWYVDGVEVHNAKTKPREEQYNSTYRVVSVLTVLHQDWLNGKEYKCKVSNKALPASIEKTISKAKGQPREPQVYTLPPCREEMTKNQVSLWCLVKGFYPSDIAVEWESNGQPENNYKTTPPVLDSDGSFFLYSKLTVDKSRWQQGNVFSCSVMHEALHNHYTQKSLSLSPGK
# anti EGFR light chain: QSALTQPRSVSGSPGQSVTISCTGTSSDVGGYNYVSWYQQHPGKAPKLMIYDVSKRPSGVPDRFSGSKSGNTASLTISGLQAEDEADYYCSSYTSSDTLEIFGGGTKLTVLGQPKAAPSVTLFPPCSEELQANKATLVCLISDFYPGAVTVAWKADSSPVKAGVETTTPSKQSNNKYAASSYLSLTPEQWKSHRSYSCQVTHEGSTVEKTVAPTEVS
# anti cMET heavy chain: QVQLVQSGAEVKKPGASVKVSCKASGYTFTDYYIHWVRQATGQGLEWMGWMNPNSGNTGYAQKFQGRVTMTRDTSISTAYMELSSLRSEDTAVYYCARGQGYTHSWGQGTMVTVSSASTKGPSVFPLAPSSKSTSGGTAALGCLVKDYFPEPVTVSWNSGALTSGVHTFPAVLQSSGLYSLSSVVTVPSSSLGTQTYICNVNHKPSNTKVDKRVEPKSCDKTHTCPPCPAPEFEGGPSVFLFPPKPKDTLMISRTPEVTCVVVDVSHEDPEVKFNWYVDGVEVHNAKTKPREEQYNSTYRVVSVLTVLHQDWLNGKEYKCKVSNKALPASIEKTISKAKGQPREPQVCTLPPSREEMTKNQVSLSCAVKGFYPSDIAVEWESNGQPENNYKTTPPVLDSDGSFFLVSKLTVDKSRWQQGNVFSCSVMHEALHNHYTQKSLSLSPGK
# anti cMET light chain: DIQMTQSPSTLSASVGDRVTITCRASEGIYHWLAWYQQKPGKAPKLLIYKASSLASGVPSRFSGSGSGTEFTLTISSLQPDDFATYYCQQYSNYPPTFGGGTKLEIKRTVAAPSVFIFPPSDEQLKSGTASVVCLLNNFYPREAKVQWKVDNALQSGNSQESVTEQDSKDSTYSLSSTLTLSKADYEKHKVYACEVTHQGLSSPVTKSFNRGEC
# B2: AZD9592-Ab (bispecific antibody, human IgG1, kappa, lambda)
# anti-EGFR heavy chain: B1 anti EGFR heavy chain
# anti-EGFR light chain: B1 anti EGFR light chain
# anti-cMET heavy chain: B1 anti cMET heavy chain
# anti-cMET light chain: B1 anti cMET light chain
# notes: also called RAA22/B09-TM
# B3: Bsab 12 (bispecific antibody, human IgG1, kappa, L234A L235A)
# chain 1: not shown
# chain 2: DIQMTQSPSSLSASVGDRVTITCKSSQSLLYTSSQKNYLAWYQQKPGKAPKLLIYWASTRESGVPSRFSGSGSGTDFTLTISSLQPEDFATYYCQQYYAYPWTFGQGTKVEIKRTVAAPSVFIFPPSDEQLKSGTASVVCLLNNFYPREAKVQWKVDNALQSGNSQESVTEQDSKDSTYSLSSTLTLSKADYEKHKVYACEVTHQGLSSPVTKSFNRGECGGGGSGGGGSGGGGSGGGGSGGGGSGGGGSGGGGSGGGGSEVQLVESGGGLVQPGGSLRLSCAASGYTFTSYWLHWVRQAPGKGLEWVGMIDPSNSDTRFNPNFKDRFTISADTSKNTAYLQMNSLRAEDTAVYYCATYRSYVTPLDYWGQGTLVTVSSASTKGPSVFPLAPSSKSTSGGTAALGCLVKDYFPEPVTVSWNSGALTSGVHTFPAVLQSSGLYSLSSVVTVPSSSLGTQTYICNVNHKPSNTKVDKKVEPKSCDKTHTCPPCPAPEAAGGPSVFLFPPKPKDTLMISRTPEVTCVVVDVSHEDPEVKFNWYVDGVEVHNAKTKPREEQYNSTYRVVSVLTVLHQDWLNGKEYKCKVSNKALPAPIEKTISKAKGQPREPQVYTLPPCREEMTKNQVSLSCAVKGFYPSDIAVEWESNGQPENNYKTTPPVLDSDGSFFLVSKLTVDKSRWQQGNVFSCSVMHEALHNHYTQKSLSLSPGK
# notes: 1+1 scFab knob-in-hole format; also called Basb 12
# B4: Nova-5097 (antibody, V domains shown)
# VH: QVQLVQSGAEVKKPGSSVKVSCKASGGTFSSYAISWVRQAPGQGLEWMGGIDPFGTANYAQKFQGRVTITADESTSTAYMELSSLRSEDTAVYYCARVYQDVWGQGTLVTVSS
# VL: DIVMTQSPDSLAVSLGERATINCRSSQSILYGINNNFLGWYQQKPGQPPKLLIYWASTRESGVPDRFSGSGSGTDFTLTISSLQAEDVAVYYCQQYAFGWTFGQGTKVEIK
# notes: Parent cMET mAb
# B5: Nova-5098 (antibody, V domains shown)
# VH: B4 VH
# VL: DIVMTQSPDSLAVSLGERATINCRSSQSILYGINNNFLGWYQQKPGQPPKLLIYWASTRESGVPDRFSGSGSGTDFTLTISSLQAEDVAVYYCLQYSDEPWTFGQGTKVEIK
# notes: Parent cMET mAb
# B6: Nova-5185 (antibody, V domains shown)
# VH: B4 VH with F54I, G55M, T56G, A57T, N58E
# VL: B5 VL with L94Q, S97A, D98Y, W101N
# notes: Parent cMET mAb
# B7: ABF-46 (antibody, V domains shown)
# VH: EVKLVESGGGLVQPGGSLRLSCATSGFTFTDYYMSWVRQPPGKALEWLGFIRNKANGYTTEYSASVKGRFTISRDNSQSILYLQMDTLRAEDSATYYCARDNWFAYWGQGTLVTVSA
# VL: DILMTQSPSSLTVSAGEKVTMSCKSSQSLLASGNQNNYLAWHQQKPGRSPKMLIIWASTRVSGVPDRFIGSGSGTDFTLTINSVQAEDLAVYYCQQSYSAPLTFGAGTKLELK
# Experiments:
# [1] = molecular target: T1, cMET on EGFR and cMET co-expressed tumor cell lines (UniProt P08581 25-1390, limits assumed); assay: flow cytometry, EBC-1 cells (co-express EGFR and cMET; both arms contribute)
# T1 construct: whole, on cells
# [2] = molecular target: T2, EGFR on EGFR and cMET co-expressed tumor cell lines (UniProt P00533 25-1210, limits assumed); assay: as above
# T2 construct: whole, on cells
# [3] = molecular target: T1, cMET on EGFR and cMET co-expressed …; assay: flow cytometry, SNU-5 cells (co-express EGFR and cMET; both arms contribute)
# [4] = molecular target: T2, EGFR on EGFR and cMET co-expressed …; assay: as above
# [5] = molecular target: T1, cMET on EGFR and cMET co-expressed …; assay: flow cytometry on SNU-5 cells (co-express EGFR and cMET), PE anti-human Fc; signal of the whole bispecific, not resolved by arm
# Procedure: (§1) EBC-1, ACHN and CAL-27 were cultured with DMEM medium (Gibco, Cat #C11995500BT) containing 10% FBS. […] Each antibody was incubated with different cell lines (1×10⁵ cells per well) for 30 mins in 0.2 mL FACS buffer (1×PBS with 0.1% BSA) at 4° C. After wash, cells were incubated with 100 μL PE-conjugated anti human Fc (Abcam, Ab98596, 1:500 dilution) for 30 mins at 4° C. After wash with PBS, cells were resuspended in FACS buffer and analyzed by flow cytometer (Beckman, CytoFLEX).
# [6] = molecular target: T2, EGFR on EGFR and cMET co-expressed …; assay: as above
# Procedure: as §1
# [7] = molecular target: T1, cMET on EGFR and cMET co-expressed …; assay: flow cytometry on CAL-27 cells (co-express EGFR and cMET), PE anti-human Fc; signal of the whole bispecific, not resolved by arm
# [8] = molecular target: T2, EGFR on EGFR and cMET co-expressed …; assay: as above
# [9] = molecular target: T1, cMET on EGFR and cMET co-expressed …; assay: flow cytometry on EBC-1 cells (co-express EGFR and cMET), PE anti-human Fc; signal of the whole bispecific, not resolved by arm
# Procedure: as §1
# [10] = molecular target: T2, EGFR on EGFR and cMET co-expressed …; assay: as above
# Procedure: as §1
# [11] = molecular target: T1, cMET on EGFR and cMET co-expressed …; assay: flow cytometry, EBC-1 cells (co-express EGFR and cMET; both arms contribute); remark: listed apart in the source
# Procedure: EBC-1 was cultured with DMEM medium (Gibco, Cat #C11995500BT) containing 10% FBS. […] Each antibody was incubated with different cell lines (1×10⁵ cells/well) for 30 min in 0.2 mL FACS buffer (1×PBS with 0.1% BSA) at 4° C. After wash, cells were incubated with 100 μL PE-conjugated anti human Fc (Abcam, Ab98596, 1:500 dilution) for 30 min at 4° C. After wash with PBS, cells were resuspended in FACS buffer and analyzed by flow cytometer (Beckman, CytoFLEX).
# [12] = molecular target: T1, cMET on EGFR and cMET co-expressed …; assay: flow cytometry, MKN-45 cells
# T1 sequence (P08581 25-1390 limits assumed): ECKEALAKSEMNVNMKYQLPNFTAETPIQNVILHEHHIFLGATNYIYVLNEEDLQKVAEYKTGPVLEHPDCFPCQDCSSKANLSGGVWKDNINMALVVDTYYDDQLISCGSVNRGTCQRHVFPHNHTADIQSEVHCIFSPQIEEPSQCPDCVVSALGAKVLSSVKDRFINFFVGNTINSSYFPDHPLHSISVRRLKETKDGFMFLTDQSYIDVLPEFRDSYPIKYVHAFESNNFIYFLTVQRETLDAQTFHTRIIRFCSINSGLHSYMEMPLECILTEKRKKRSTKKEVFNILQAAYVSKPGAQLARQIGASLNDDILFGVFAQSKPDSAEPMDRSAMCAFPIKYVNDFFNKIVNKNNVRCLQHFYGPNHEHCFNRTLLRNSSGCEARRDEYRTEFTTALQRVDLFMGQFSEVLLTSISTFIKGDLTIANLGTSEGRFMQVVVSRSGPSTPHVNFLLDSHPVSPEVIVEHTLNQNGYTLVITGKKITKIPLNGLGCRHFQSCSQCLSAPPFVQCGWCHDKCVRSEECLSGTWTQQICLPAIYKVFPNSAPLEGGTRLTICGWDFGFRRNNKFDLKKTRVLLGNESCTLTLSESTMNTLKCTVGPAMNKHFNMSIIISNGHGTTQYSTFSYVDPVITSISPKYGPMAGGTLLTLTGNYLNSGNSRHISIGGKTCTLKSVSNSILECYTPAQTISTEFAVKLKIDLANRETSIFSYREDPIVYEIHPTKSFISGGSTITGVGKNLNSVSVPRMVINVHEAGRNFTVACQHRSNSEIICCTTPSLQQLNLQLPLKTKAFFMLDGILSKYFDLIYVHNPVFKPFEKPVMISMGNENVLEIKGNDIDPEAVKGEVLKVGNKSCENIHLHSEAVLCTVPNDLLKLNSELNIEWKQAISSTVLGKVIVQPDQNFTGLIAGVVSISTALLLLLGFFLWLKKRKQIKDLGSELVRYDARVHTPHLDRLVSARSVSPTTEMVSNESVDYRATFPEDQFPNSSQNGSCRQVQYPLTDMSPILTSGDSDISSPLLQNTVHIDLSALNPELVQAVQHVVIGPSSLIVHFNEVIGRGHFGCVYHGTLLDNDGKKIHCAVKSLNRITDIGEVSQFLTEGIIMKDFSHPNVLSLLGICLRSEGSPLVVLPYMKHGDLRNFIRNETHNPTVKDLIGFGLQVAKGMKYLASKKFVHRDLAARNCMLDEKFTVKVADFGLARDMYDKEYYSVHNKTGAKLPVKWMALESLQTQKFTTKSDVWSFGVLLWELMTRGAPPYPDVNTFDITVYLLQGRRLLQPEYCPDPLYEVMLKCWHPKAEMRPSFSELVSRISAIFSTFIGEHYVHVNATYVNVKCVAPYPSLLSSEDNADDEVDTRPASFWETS
binder,measurement,setting,value
B1,EC50 (read off the curve),[1],~0.9 nM
same,EC50 (read off the curve),[2],~0.9 nM
same,EC50 (read off the curve),[3],~2 nM
same,EC50 (read off the curve),[4],~2 nM
B2,EC50 (read off the curve),[5],~4 nM
same,EC50 (read off the curve),[6],~4 nM
same,EC50 (read off the curve),[7],~9 nM
same,EC50 (read off the curve),[8],~9 nM
same,EC50 (read off the curve),[9],~2 nM
same,EC50 (read off the curve),[10],~2 nM
B3,EC50 (read off the curve),[11],~2 nM
B4,binding result,[12],binds
B5,binding result,[12],binds
B6,binding result,[12],binds
B7,binding result,[12],binds
